The values below come from patent US10125184B2, “Apolipoprotein E polypeptides and their use” (priority 2011, dated 2018).

Test [1] in a line: DMPC binding assay (turbidity OD490nm). As for the experimental part: FIGS. 3A-3C. Both hEP and mEP mediate plasma cholesterol clearance through hepatic lipoprotein receptors. (A) DMPC binding assay was conducted as described in the examples section. The turbidity of DMPC vesicle solution was monitored by OD490 nm. The curves were representative of two independent experiments. (B) HEK293T cells were loaded with DiI-LDL (5 μg/ml) along with apoE peptide-DMPC particles which competed with DiI-LDL for LDLR binding and LDLR-mediated endocytosis (for 30 min) n=3 for each group. (C) Each peptide (100 μg in 100 μl PBS) was retro-orbitally injected into 6-month-old apoE−/− mice (two mice each group). PBS (100 μl) was injected into two other mice as control. Before (set as 0 min time point) and 5 min, 30 min, 1 h, 2 h, and 4 h after the peptide or PBS injection, 30 μl blood samples were drawn for plasma cholesterol measurement using total Cholesterol Reagent Kit (Raichem, San Diego, Calif.).
1,2-dimyristoyl-sn-glycero-3-phosphatidylcholine (DMPC) (Avanti Polar Lipids Inc., Alabaster, Ala.) was dissolved in chloroform: methanol (3:1, v/v). It was dried thoroughly under a stream of N2. The dried lipid sample was dispersed in pre-warmed buffer (10 mM Tris-HCl, pH7.2; 150 mM NaCl; 0.5 mM EDTA) to final lipid concentration of 10 mg/ml, vortexed for 1 min, and sonicated 10 times at lowest power for 10 seconds at 24° C. The peptide solution, lipid solution and buffer were all maintained at 23.9° C. One milliliter buffer and 250 μg (25 μl lipid solution) were added in a quartz cuvette, and let equilibrate for 10 min, resulting in a turbid DMPC vesicle solution. Peptide solution (250 μg in 100 μl) was then added to turbid solution in the cuvette, the solution was mixed immediately, and the change of turbidity was monitored by OD at 490 nm as a function of time. If the peptide binds to DMPC vesicles, the large DMPC vesicles will be transformed into smaller DMPC-peptide particles, reducing the turbidity of the solution.

A further test has as its system JFH-1 HCVcc-Luc. Here is the method: FIGS. 1A-1C. […] (A) Schematic illustration of apoE protein domains and the amino acid sequences of hEP and mEP peptides. The amino acid sequences shown are hEP-1 (SEQ ID NO: 6) and mEP (SEQ ID NO: 20). […] Huh7.5.1 cells were infected with JFH-1 HCVcc-Luc (MOI˜0.5) in the presence of hEP or mEP for 2 hours. After removal of virus and peptides, cells were further incubated for 48 hours prior to luciferase assay. Data are presented as % inhibition relative to control infections in which cells were treated with DMSO (0%). Results are expressed as mean±standard deviation (s.d.) (n=3). (C). Huh7.5.1 cells were treated with hEP or DMSO at indicated doses for 48 hours. The effect of hEP on cell viability was measured by a CellTiter Glo assay kit.
FIGS. 7A-7E. Mapping the anti-viral activity of hEP. In (A) and (B), HCVcc-luc was first mixed with indicated peptides (20 μg/ml, 2.7 μM) and then incubated with Huh7.5.1 cells for two hours at 37° C. to initiate infection. After additional 48 hours incubation, luciferase activity was measured. Results are presented as fold of inhibition relative to infections containing DMSO (n=5, mean±sd). (C) 20 μg of hEP-2 or hEP-2/ΔCys were resuspended in PBS and kept at room temperature for 30 minutes. Peptides were then mixed with 2×SDS-sample buffer without DTT and boiled for 5 minutes. Alternatively, samples were simply left unboiled or mixed with sample buffer containing DTT (2 mM). Peptide samples were then subjected to electrophoresis on a 16% tricine non-reducing gel (Invitrogen). […] (D) and (E) Mass spectrometric analysis of hEP-2 or hEP-2/ΔCys.
Detailed procedures involving the production and use of HCVpp and HCVcc have been published elsewhere (Liu et al., J Virol 2009; 83:2011-2014; Yang et al., Hepatology 2008; 48:1396-1403; Yang et al., J Biol Chem 2008; 283:8643-8653). Production procedure of HCVcc expressing firefly luciferase that was inserted between NS5A and NS5B (JFH-1 strain) was described elsewhere (Liu et al., Virology 2010; 407:160-170). Unless otherwise indicated, viruses were typically added to cells for two hours before removal. Cells were incubated for additional 48 hours followed by luciferase assay. When purification was needed, HCVcc were subjected to ultracentrifugation (SW41, 28,000×g) for 4 hours through a 20% sucrose cushion. Deidentified human sera, collected from five patients containing high-titer HCV (HCVser), were obtained.

Read-outs that look alike come from different tables or passages of the source.

In the case of “EELRVRLASHLRKLRKRLLRDADDLQKRLAVYEEQAQQIRLQAEAFQARLKSWFEPLVEDM [hEP-1]”, in test [1] (reduction (percentage) of turbidity (OD490nm) of DMPC solution, plateau 10 minutes after addition of peptide), the DMPC binding result was “+ (+, reduction 25-50%)”. The molecule further registered an IC50 in the test on JFH-1 HCVcc-Luc (HCVcc infection of Huh7.5.1 cells) of 670 nM.

B1: hEP: human apoE dual-domain peptide: helix 4 of N-terminal domain plus major lipid-binding region; expressed in bacteria (protein)
peptide: EELRVRLASHLRKLRKRLLRDADDLQKRLAVYEEQAQQIRLQAEAFQARLKSWFEPLVEDM
B1: in test [1] (DMPC vesicles, turbidity), the “Binding to DMPC (in words)” value is given as “efficiently bound”. The IC50 in the test on JFH-1 HCVcc-Luc (read-out: 50% inhibitory concentration (IC50) of HCVcc infection, JFH-1 HCVcc-Luc MOI~0.5, peptide present 2 hours, luciferase after 48 hours) stood at 670 nM. The “Suppression of HCVcc infection at various MOIs” value in the test with JFH-1 HCVcc-Luc (various MOIs) was “robustly suppressed”.
